We go through four molecules from article doi:10.1101/2020.02.01.930206 (bioRxiv, 2020).

The data set “crystal structure” deals with the molecule itself. Put plainly: crystal structure.
The target of data set [1] is T1, human primase (PriL-PriS heterodimer) (human, UniProt P49643;P49642).
T1 sequence 1: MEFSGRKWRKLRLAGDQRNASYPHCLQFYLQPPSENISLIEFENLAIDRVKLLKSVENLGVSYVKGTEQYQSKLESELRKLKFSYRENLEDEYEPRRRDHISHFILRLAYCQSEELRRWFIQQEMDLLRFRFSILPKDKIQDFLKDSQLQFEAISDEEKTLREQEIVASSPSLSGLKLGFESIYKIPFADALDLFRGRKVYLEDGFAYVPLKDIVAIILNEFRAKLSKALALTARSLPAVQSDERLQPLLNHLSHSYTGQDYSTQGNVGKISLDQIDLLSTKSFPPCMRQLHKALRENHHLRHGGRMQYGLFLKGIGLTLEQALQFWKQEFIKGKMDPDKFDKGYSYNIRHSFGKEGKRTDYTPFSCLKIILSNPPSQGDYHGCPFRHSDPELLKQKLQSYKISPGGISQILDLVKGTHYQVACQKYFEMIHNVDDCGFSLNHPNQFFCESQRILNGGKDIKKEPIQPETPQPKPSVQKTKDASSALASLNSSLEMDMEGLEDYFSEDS
T1 sequence 2: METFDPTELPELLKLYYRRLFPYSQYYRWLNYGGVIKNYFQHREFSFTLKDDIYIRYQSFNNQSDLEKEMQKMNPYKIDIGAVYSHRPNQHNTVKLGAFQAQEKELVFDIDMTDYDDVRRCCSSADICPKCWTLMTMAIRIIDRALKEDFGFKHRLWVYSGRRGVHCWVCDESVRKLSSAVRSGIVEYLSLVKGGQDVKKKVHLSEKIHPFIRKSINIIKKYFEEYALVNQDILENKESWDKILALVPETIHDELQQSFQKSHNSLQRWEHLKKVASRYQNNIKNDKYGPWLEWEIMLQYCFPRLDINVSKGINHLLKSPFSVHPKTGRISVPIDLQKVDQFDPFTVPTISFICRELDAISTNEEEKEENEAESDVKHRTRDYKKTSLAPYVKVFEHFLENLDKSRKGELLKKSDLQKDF
Put plainly: ITC.

The next data set deals with T2, full-length mouse DNA2 (mouse, UniProt Q6ZQJ5 1-1062).
T2 sequence: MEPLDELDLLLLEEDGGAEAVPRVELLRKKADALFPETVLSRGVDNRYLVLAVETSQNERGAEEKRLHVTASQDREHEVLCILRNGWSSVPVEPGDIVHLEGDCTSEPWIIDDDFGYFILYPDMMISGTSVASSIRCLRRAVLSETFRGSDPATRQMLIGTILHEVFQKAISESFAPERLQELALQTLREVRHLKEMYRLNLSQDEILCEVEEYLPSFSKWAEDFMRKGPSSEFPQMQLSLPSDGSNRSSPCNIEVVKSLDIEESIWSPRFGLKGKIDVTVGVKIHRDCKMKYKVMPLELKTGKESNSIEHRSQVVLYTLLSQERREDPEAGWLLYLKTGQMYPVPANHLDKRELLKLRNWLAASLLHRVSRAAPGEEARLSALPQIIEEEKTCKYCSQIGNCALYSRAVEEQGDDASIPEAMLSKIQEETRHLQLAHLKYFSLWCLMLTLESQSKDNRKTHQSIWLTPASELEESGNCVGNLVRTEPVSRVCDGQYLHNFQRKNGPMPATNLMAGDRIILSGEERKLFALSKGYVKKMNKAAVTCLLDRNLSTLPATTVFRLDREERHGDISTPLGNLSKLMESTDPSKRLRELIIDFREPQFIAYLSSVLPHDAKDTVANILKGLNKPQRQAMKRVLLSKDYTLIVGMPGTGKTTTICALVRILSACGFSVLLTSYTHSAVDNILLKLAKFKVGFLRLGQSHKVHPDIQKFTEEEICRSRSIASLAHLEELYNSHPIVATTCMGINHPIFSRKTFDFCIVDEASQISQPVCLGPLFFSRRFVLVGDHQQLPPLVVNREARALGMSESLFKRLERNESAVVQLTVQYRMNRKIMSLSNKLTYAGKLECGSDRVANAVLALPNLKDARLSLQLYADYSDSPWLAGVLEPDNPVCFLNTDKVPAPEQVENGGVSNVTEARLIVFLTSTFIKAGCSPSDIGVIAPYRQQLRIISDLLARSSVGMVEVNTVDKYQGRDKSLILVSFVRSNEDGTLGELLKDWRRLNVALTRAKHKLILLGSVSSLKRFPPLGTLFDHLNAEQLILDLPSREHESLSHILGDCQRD
Put plainly: cryo-EM structure.

B1: full-length mouse MMS19 (natural protein)
chain: MAAATGLEEAVAPMGALCGLVQDFVMGQQEGPADQVAADVKSGGYTVLQVVEALGSSLENAEPRTRARGAQLLSQVLLQCHSLLSEKEVVHLILFYENRLKDHHLVVPSVLQGLRALSMSVALPPGLAVSVLKAIFQEVHVQSLLQVDRHTVFSIITNFMRSREEELKGLGADFTFGFIQVMDGEKDPRNLLLAFRIVHDLISKDYSLGPFVEELFEVTSCYFPIDFTPPPNDPYGIQREDLILSLRAVLASTPRFAEFLLPLLIEKVDSEILSAKLDSLQTLNACCAVYGQKELKDFLPSLWASIRREVFQTASERVEAEGLAALHSLTACLSCSVLRADAEDLLGSFLSNILQDCRHHLCEPDMKLVWPSAKLLQAAAGASARACEHLTSNVLPLLLEQFHKHSQSNQRRTILEMILGFLKLQQKWSYEDRDERPLSSFKDQLCSLVFMALTDPSTQLQLVGIRTLTVLGAQPGLLSAEDLELAVGHLYRLTFLEEDSQSCRVAALEASGTLATLYPGAFSRHLLPKLAEELHKGESDVARADGPTKCSRHFRCLQALSAVSTHPSIVKETLPLLLQHLCQANKGNMVTESSEVVAVCQSLQQVAEKCQQDPESYWYFHKTAVPCLFALAVQASMPEKESSVLRKVLLEDEVLAALASVIGTATTHLSPELAAQSVTCIVPLFLDGNTSFLPENSFPDQFQPFQDGSSGQRRLVALLTAFVCSLPRNVEIPQLNRLMRELLKQSCGHSCPFSSTAATKCFAGLLNKQPPGQQLEEFLQLAVGTVEAGLASESSRDQAFTLLLWVTKALVLRYHPLSACLTTRLMGLLSDPELGCAAADGFSLLMSDCTDVLTRAGHADVRIMFRQRFFTDNVPALVQGFHAAPQDVKPNYLKGLSHVLNRLPKPVLLPELPTLLSLLLEALSCPDSVVQLSTLSCLQPLLLEAPQIMSLHVDTLVTKFLNLSSSYSMAVRIAALQCMHALTRLPTSVLLPYKSQVIRALAKPLDDKKRLVRKEAVSARGEWFLLGSPGS
Regarding B1, the binding result in “crystal structure” is listed as “binds”.

B2: human CIAO1-CIAO2B core complex (complex)
chain 1: not shown
chain 2: MVGGGGVGGGLLENANPLIYQRSGERPVTAGEEDEQVPDSIDAREIFDLIRSINDPEHPLTLEELNVVEQVRVQVSDPESTVAVAFTPTIPHCSMATLIGLSIKVKLLRSLPQRFKMDVHITPGTHASEHAVNKQLADKERVAAALENTHLLEVVNQCLSARS
For B2, in data set [1], the affinity, expressed as Kd, was 5.4 µM.

B3: human MMS19^710-1030-CIAO1-CIAO2B complex (complex)
chain 1: GQRRLIALLMAFVCSLPRNVEIPQLNQLMRELLELSCCHSCPFSSTAAAKCFAGLLNKHPAGQQLDEFLQLAVDKVEAGLGSGPCRSQAFTLLLWVTKALVLRYHPLSSCLTARLMGLLSDPELGPAAADGFSLLMSDCTDVLTRAGHAEVRIMFRQRFFTDNVPALVQGFHAAPQDVKPNYLKGLSHVLNRLPKPVLLPELPTLLSLLLEALSCPDCVVQLSTLSCLQPLLLEAPQVMSLHVDTLVTKFLNLSSSPSMAVRIAALQCMHALTRLPTPVLLPYKPQVIRALAKPLDDKKRLVRKEAVSARGEWFLLGSPGS
chain 2: not shown
chain 3: MVGGGGVGGGLLENANPLIYQRSGERPVTAGEEDEQVPDSIDAREIFDLIRSINDPEHPLTLEELNVVEQVRVQVSDPESTVAVAFTPTIPHCSMATLIGLSIKVKLLRSLPQRFKMDVHITPGTHASEHAVNKQLADKERVAAALENTHLLEVVNQCLSARS
Molecule B3 displayed a dissociation constant Kd in data set [1] of 0.832 µM.

B4: human MMS19 (subunit of the purified CTC) (natural protein)
chain: MAAAAAVEAAAPMGALWGLVHDFVVGQQEGPADQVAADVKSGNYTVLQVVEALGSSLENPEPRTRARAIQLLSQVLLHCHTLLLEKEVVHLILFYENRLKDHHLVIPSVLQGLKALSLCVALPPGLAVSVLKAIFQEVHVQSLPQVDRHTVYNIITNFMRTREEELKSLGADFTFGFIQVMDGEKDPRNLLVAFRIVHDLISRDYSLGPFVEELFEVTSCYFPIDFTPPPNDPHGIQREDLILSLRAVLASTPRFAEFLLPLLIEKVDSEVLSAKLDSLQTLNACCAVYGQKELKDFLPSLWASIRREVFQTASERVEAEGLAALHSLTACLSRSVLRADAEDLLDSFLSNILQDCRHHLCEPDMKLVWPSAKLLQAAAGASARACDSVTSNVLPLLLEQFHKHSQSSQRRTILEMLLGFLKLQQKWSYEDKDQRPLNGFKDQLCSLVFMALTDPSTQLQLVGIRTLTVLGAQPDLLSYEDLELAVGHLYRLSFLKEDSQSCRVAALEASGTLAALYPVAFSSHLVPKLAEELRVGESNLTNGDEPTQCSRHLCCLQALSAVSTHPSIVKETLPLLLQHLWQVNRGNMVAQSSDVIAVCQSLRQMAEKCQQDPESCWYFHQTAIPCLLALAVQASMPEKEPSVLRKVLLEDEVLAAMVSVIGTATTHLSPELAAQSVTHIVPLFLDGNVSFLPENSFPSRFQPFQDGSSGQRRLIALLMAFVCSLPRNVEIPQLNQLMRELLELSCCHSCPFSSTAAAKCFAGLLNKHPAGQQLDEFLQLAVDKVEAGLGSGPCRSQAFTLLLWVTKALVLRYHPLSSCLTARLMGLLSDPELGPAAADGFSLLMSDCTDVLTRAGHAEVRIMFRQRFFTDNVPALVQGFHAAPQDVKPNYLKGLSHVLNRLPKPVLLPELPTLLSLLLEALSCPDCVVQLSTLSCLQPLLLEAPQVMSLHVDTLVTKFLNLSSSPSMAVRIAALQCMHALTRLPTPVLLPYKPQVIRALAKPLDDKKRLVRKEAVSARGEWFLLGSPGS
As for B4, the binding result with full-length mouse DNA2 was “binds”.
